# Data: the supplement of paper PMC12042874
# ± gives the uncertainty stated by the source.
# Test: amyloid nucleation score (Sup35N fusion, yeast selection) (log enrichment); library NNK3; higher = more nucleation; inactive = no reads after selection
# Procedure, shortened: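 DiMSum was used to calculate nucleation scores as log enrichment of output over input reads, centred on the mode score of non-aggregating sequences. Sequences with fewer than 100 input reads were not scored. Input and output came from Illumina sequencing of plasmid inserts in psi-negative yeast expressing peptides of 20 random codons fused to Sup35N, induced 24 hours with 100 μM copper sulfate and then grown 7 days at 30°C on medium lacking adenine and uracil.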
row,Substance,amyloid nucleation score
1,VMQYLLMAEKNQLRLQRFAR,inactive
2,VMSKIISTQLVDMR,inactive
3,VMYCYWSLIMSDSCNFMCQY,2.08 ± 0.058
4,VMYSGFRVILF,0.751 ± 0.15
5,VNCATWNLNFTRMFMACIGL,1.28 ± 0.12
6,VNFRIKAIVVSLRGYDWLSG,0.287 ± 0.67
7,VNGNVDKFQKSKSLGTFVTT,inactive
8,VNNKIVVWTIMSSNDERLPS,1.54 ± 0.082
9,VNSGVGVSVRRASSLCLCVR,inactive
10,VNSLNHYYLIPCARFEPEG,inactive
11,VNTFVFTGFCMYSFVMSWLN,0.525 ± 0.2
12,VNWIVLSYHYNRYDVGNMAS,2.87 ± 0.074
13,VNYDSLPVLRPGSEGGVLFN,inactive
14,VNYHFYKFYGPWRVWNRTRA,1.95 ± 0.086
15,VNYLYPS,inactive
16,VNYSLQVNFVFRWARFKLWL,inactive
17,VPEWG,inactive
18,VPFVRVNDALVVVSLWDKVL,inactive
19,VPSQLFLHRHHCVVWIEDMW,0.827 ± 0.19
20,VPVRSSYMTEMYVCSGISPR,inactive
21,VPVVYGSCCKHRGICMYVL,inactive
22,VQAAKLVYHYQGSCLNRLRE,inactive
23,VQSMKMGPVRISKCNDKSER,inactive
24,VRACNRLVYRFGDTVISDKR,inactive
25,VRAPTYVGAWSPGEFNYRSD,inactive
26,VRFCGLLIGQVTWFLAVLEY,inactive
27,VRFLGFHKCVILAIDYDQFL,1.67 ± 0.1

row,Substance,amyloid nucleation score
1,VRFNSYAFYITIVGGKHTTT,2.38 ± 0.059
2,VRFYVAYFILFSDATAMALK,inactive
3,VRGLDVCTDEFCVQLDYMW,inactive
4,VRIKFCAWKLGYGSTGNVHI,0.657 ± 0.2
5,VRITSMPTFWRIEPGYLERV,inactive
6,VRKVSTAPAELHAIKSGDTH,inactive
7,VRLTLIRSLRARRDGEDSKM,inactive
8,VRLYMYMTILIGNVDLFVEG,inactive
9,VRMCVIVQVKVCARDMTVST,inactive
10,VRQHCQMLMILFLYPLACGS,inactive
11,VRRCNTCLQ,inactive
12,VRRTLYISMRLRLIPYLSNV,1.62 ± 0.11
13,VRSHPCSGGTLVGWDSYW,1.01 ± 0.14
14,VRSIRWKVT,inactive
15,VRVELNYKMMHMSHRIMY,1.52 ± 0.073
16,VRVMDLVGKALSTSSVANLA,inactive
17,VSACIWRKLPVFVYSVSAGS,inactive
18,VSANSMFIRGLIDSILAELA,inactive
19,VSASILS,inactive
20,VSCESECLLLMIKKYFGSDS,0.12 ± 0.26
21,VSDIGCMGVDSLSPGYHNIV,inactive
22,VSDKHVYCMEGCMP,inactive
23,VSDRVSLSVGG,inactive
24,VSEIW,inactive
25,VSETMWMSFLTVSFELRVDG,inactive
26,VSFELYMHFSSFSYFGMLKG,1.16 ± 0.13
27,VSFHRRKLNHCNCRML,inactive

row,Substance,amyloid nucleation score
1,VSFNKPLKQVKGPAVTGWKE,inactive
2,VSFNP,-0.32 ± 0.6
3,VSFYIVKSLEEAGVSR,1.36 ± 0.15
4,VSIRTR,inactive
5,VSKVMSEMIYVGIYICKCCL,1.39 ± 0.11
6,VSMVQVTIRKRAS,inactive
7,VSNDLWATVYHWGL,inactive
8,VSNYTSRNNYVNCQLELTRA,inactive
9,VSRFVLLWMSNCWATYGLFR,inactive
10,VSRGDTINIISSVDCVKTYF,inactive
11,VSRRFVIM,0.45 ± 0.17
12,VSRYGYCCRRIYAELHGFPD,inactive
13,VSSATTTMARRIHCFRVSRV,inactive
14,VSSEGYIADTA,0.292 ± 0.57
15,VSTHVLHPYTYT,inactive
16,VSTWGRDLVVTIAGR,inactive
17,VSVCLKELHQ,inactive
18,VSVEFRSDSARWGNDVCEET,inactive
19,VSVIWSMMCIRIITISCGRV,inactive
20,VSWLCSMKDICPHCDEINYR,1.8 ± 0.062
21,VSYGTCH,inactive
22,VTKARSHYTVSVLMDEKCMG,inactive
23,VTLQLPDCFGRACIGLAYIA,inactive
24,VTPVTYQASLTICYSYKALH,inactive
25,VTRHEFVLLLETVPISYWPH,inactive
26,VTRIW,inactive
